Reference: patent US20260108618A1

Experiments:
Test in all cases: cell-based or functional assay
[1] = molecular target: neuraminidase of influenza A/CA/7/2009 (H1N1pdm) (Influenza A virus)
[2] = molecular target: neuraminidase of influenza B/Malaysia/2506/2004 (Victoria) (Influenza B virus)
[3] = molecular target: Neuraminidase of influenza B/Phuket/3073/2013 (Yamagata) (influenza B virus B/Phuket/3073/2013 (Yamagata))
[4] = molecular target: Neuraminidase of influenza A/Hawaii/70/2019 (H1N1)pdm09 (influenza A virus A/Hawaii/70/2019 (H1N1)pdm09)
[5] = molecular target: Neuraminidase of influenza A/Hong Kong/2671/2019 (H3N2) (influenza A virus A/Hong Kong/2671/2019 (H3N2))
[6] = molecular target: neuraminidase of influenza B/Florida/4/2006 (Yamagata) (Influenza B virus)
[7] = molecular target: neuraminidase of influenza A/Hong Kong/1/1968 (H3N2) (Influenza A virus) (UniProt Q91MA2)
[8] = molecular target: Neuraminidase of influenza B/Washington/02/2019 (Victoria) (influenza B virus B/Washington/02/2019 (Victoria))

Sequence of neuraminidase of influenza A/Hong Kong/1/1968 (H3N2) (Influenza A virus) (Q91MA2 whole entry): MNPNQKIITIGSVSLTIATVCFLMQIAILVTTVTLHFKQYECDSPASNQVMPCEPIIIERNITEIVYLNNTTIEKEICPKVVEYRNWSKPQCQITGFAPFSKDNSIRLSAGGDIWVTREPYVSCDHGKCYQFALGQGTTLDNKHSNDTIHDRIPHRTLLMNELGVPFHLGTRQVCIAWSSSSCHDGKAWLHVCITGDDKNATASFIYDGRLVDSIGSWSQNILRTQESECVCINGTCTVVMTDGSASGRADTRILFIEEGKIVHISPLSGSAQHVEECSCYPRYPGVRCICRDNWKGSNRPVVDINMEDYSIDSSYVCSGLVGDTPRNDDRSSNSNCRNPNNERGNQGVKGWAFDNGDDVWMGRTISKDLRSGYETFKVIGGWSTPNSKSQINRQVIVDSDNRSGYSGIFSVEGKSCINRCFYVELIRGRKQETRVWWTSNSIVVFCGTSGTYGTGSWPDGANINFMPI

hIgG1 Fc (from UniProt P01857 84-329)
> 1000 nM: enzyme-linked lectin assay (ELLA) IC50, fetuin substrate, virus [1] | enzyme-linked lectin assay (ELLA) IC50, fetuin substrate, virus [2] | enzyme-linked lectin assay (ELLA) (IC50), fetuin substrate, live virus [3] | enzyme-linked lectin assay (ELLA) (IC50), fetuin substrate, live virus [4] | enzyme-linked lectin assay (ELLA) (IC50), fetuin substrate, live virus [5] | enzyme-linked lectin assay (ELLA) IC50, fetuin substrate, virus [6] | enzyme-linked lectin assay (ELLA) IC50, fetuin substrate, virus [7] | enzyme-linked lectin assay (ELLA) (IC50), fetuin substrate, live virus [8]
